# Test results from patent US12570711B2, “Platforms for co-stimulation, novel car designs and other enhancements for adoptive cellular therapy” (Angeles Therapeutics, Inc., priority 2017, dated 2026).
# T1: CD19 (Homo sapiens, UniProt P15391)
# T1 construct: endogenous in cells; host or cells: RAJI cells in vitro
# T1 sequence (P15391 20-556): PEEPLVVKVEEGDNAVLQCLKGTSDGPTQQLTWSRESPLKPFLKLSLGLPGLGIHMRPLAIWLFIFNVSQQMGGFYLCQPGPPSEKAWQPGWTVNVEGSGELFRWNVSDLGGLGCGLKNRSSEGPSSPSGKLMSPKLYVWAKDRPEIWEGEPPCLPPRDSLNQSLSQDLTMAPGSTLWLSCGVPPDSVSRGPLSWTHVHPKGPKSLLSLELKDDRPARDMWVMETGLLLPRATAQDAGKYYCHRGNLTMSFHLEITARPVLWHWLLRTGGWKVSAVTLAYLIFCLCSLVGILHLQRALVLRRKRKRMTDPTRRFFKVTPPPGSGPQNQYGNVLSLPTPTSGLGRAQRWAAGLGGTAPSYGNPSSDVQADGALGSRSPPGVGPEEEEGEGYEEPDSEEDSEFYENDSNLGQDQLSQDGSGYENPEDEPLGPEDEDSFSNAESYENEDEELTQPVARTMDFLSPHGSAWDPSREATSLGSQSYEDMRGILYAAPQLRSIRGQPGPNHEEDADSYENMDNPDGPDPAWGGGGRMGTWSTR
# B1: EF1α-D-SacII promoter: EF1α promoter from which an internal SacII fragment was deleted (nucleic acid)
# DNA: GTGAGGCTCCGGTGCCCGTCAGTGGGCAGAGCGCACATCGCCCACAGTCCCCGAGAAGTTGGGGGGAGGGGTCGGCAATTGAACCGGTGCCTAGAGAAGGTGGCGCGGGGTAAACTGGGAAAGTGATGTCGTGTACTGGCTCCGCCTTTTTCCCGAGGGTGGGGGAGAACCGTATATAAGTGCAGTAGTCGCCGTGAACGTTCTTTTTCGCAACGGGTTTGCCGCCAGAACACAGGTAAGTGCCGTGTGTGGTTCCCGCGGGCGGCGACGGGGCCCGTGCGTCCCAGCGCACATGTTCGGCGAGGCGGGGCCTGCGAGCGCGGCCACCGAGAATCGGACGGGGGTAGTCTCAAGCTGGCCGGCCTGCTCTGGTGCCTGGCCTCGCGCCGCCGTGTATCGCCCCGCCCTGGGCGGCAAGGCTGGCCCGGTCGGCACCAGTTGCGTGAGCGGAAAGATGGCCGCTTCCCGGCCCTGCTGCAGGGAGCTCAAAATGGAGGACGCGGCGCTCGGGAGAGCGGGCGGGTGAGTCACCCACACAAAGGAAAAGGGCCTTTCCGTCCTCAGCCGTCGCTTCATGTGACTCCACGGAGTACCGGGCGCCGTCCAGGCACCTCGATTAGTTCTCGACCTTTTGGAGTACGTCGTCTTTAGGTTGGGGGGAGGGGTTTTATGCGATGGAGTTTCCCCACACTGAGTGGGTGGAGACTGAAGTTAGGCCAGCTTGGCACTTGATGTAATTCTCCTTGGAATTTGCCCTTTTTGAGTTTGGATCTTGGTTCATTCTCAAGCCTCAGACAGTGGTTCAAAGTTTTTTTCTTCCATTTCAGGTGTCGTGA
# Target: T1, CD19
# Assay: Jurkat-NFAT-EGFP (J-N-G) reporter: EGFP induction upon co-culture with RAJI cells
# Assay type: cell-based
# Conditions: co-culture with CD19+ve RAJI cells, compared to wild-type EF1α promoter
# Excerpt: Jurkat cell line (clone E6-1) engineered with a NFAT-dependent EGFP (or GFP) reporter gene was a gift from Dr. Arthur Weiss at University of California San Francisco and have been described to study CAR-signaling ((Wu, C Y et al., Science 350:293-302, 2015). Jurkat cells were maintained in RPMI-1640 medium supplemented with 10% FBS, penicillin and streptomycin.
# Use of strong viral promoters in adoptive cellular therapy applications carries the risk of activation of downstream oncogenes and development of cancer. As such, human Elongation Factor 1α (EF1α) promoter is frequently used in adoptive cellular therapy applications as it provides strong expression and is human in origin. A limitation of EF1α promoter, however, is its relatively large size. Although a mini-EF1α promoter has been described, it is much weaker as compared to the EF1α promoter. To determine whether an internal deletion in the EF1α promoter would allow shortening of its length while preserving its promoter strength, a SacII fragment was deleted from the EF1α promoter. […] The vectors also co-expressed EGFP and blasticidin resistance gene via 2A linkers. Lentiviruses were generated in 293FT cells and used to infect J-N-G cells.
molecule,measurement,value
B1,induction of EGFP expression by FMC63-BBz CAR,Near equivalent inducton of EGFP expression
